Experimental findings from patent US20140206847A1 (PANASONIC, published 2014) are described below.

This test addresses T1, Troponin I derived from human myocardium (human, UniProt P19429 2-210).
T1 construct: Bought protein, fixed on a CM5 chip at approximately 500 RU; also called Troponin I (purchased from Funakoshi)
Description: SPR, Biacore T100; troponin I fixed on CM5 chip, measured similarly to the mutant protein; column head 'Association Rate Ka(M^-1)'. As to the method: Using an intermolecular interaction analyzer Biacore T100 (purchased from GE health care company), the association rate of the mutant protein was measured in accordance with the manual attached to the intermolecular interaction analyzer Biacore T100.
More particularly, Troponin I (purchased from Funakoshi) derived from human myocardium having approximately 500 RU (Resonance Unit) was fixed on a CM5 chip (purchased from GE health care company). This CM5 chip was set in the Biacore T100. Then, aqueous solutions (concentration: 100 nM, 50 nM, 25 nM, 12.5 nM, and 6.25 nM, volume: 150 microliters) containing the purified mutant protein was flowed through the Biacore T100 to measure the association rate of the mutant protein.

T1 sequence (P19429 2-210 limits assumed): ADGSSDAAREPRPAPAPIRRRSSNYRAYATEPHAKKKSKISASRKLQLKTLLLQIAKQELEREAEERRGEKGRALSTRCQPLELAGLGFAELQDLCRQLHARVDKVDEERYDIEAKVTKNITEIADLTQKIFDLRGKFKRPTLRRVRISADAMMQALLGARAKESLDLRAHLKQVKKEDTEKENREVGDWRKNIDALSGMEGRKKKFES

B1: First mutant scFv antibody fragment (scFv)
scFv: DVVLTQSPLTLSVTIGQPASISCKSSQSLLDSDGKTYLNWLLQRPGQSPKRLIYLVSKLDSGVPDRFTGSGSGTDFTLKISRVEAEDLGVYYCWQGTHFPLTFGAGTKLEIKRGGGGSGGGGSGGGGSQLQLQQSGAELVRSGASVKLSCTASGFNIKDYYMNWVKQRPEQGLEWIGWIDPANGDTAYAPRFQVKADMTADKDSDTAYLQLSSLTSEDTAVYYCNADLPMDQWGQGTSVTVSSAAALESFNRNEC
notes: also called first mutant scFv antibody fragment 51; mutant first scFv antibody fragment
B1: the Ka stood at 5.11e+09 M⁻¹.
